Assay results as given in paper PMC13094992, “Genetic complementation reveals structure-function links in nodavirus RNA replication complex crowns” (PLOS Pathogens, 2026).

Molecular target: the molecule itself
Test: negative-stain electron microscopy (2D classification, 3D reconstruction)

Protein	binding result
FHV protein A H93A, C-terminal alfa tag (natural protein, also called RNA capping null mutant H93A; not shown: ALFA tag, C-terminal, kept) MTLKVILGEHQITRTELLVGIATVSGCGAVVYCISKFWGYGAIAPYPQSGGNRVTRALQRAVIDKTKTPIETRFYPLDSLRTVTPKRVADNGAAVSGAVRDAARRLIDESITAVGGSKFEVNPNPNSSTGLRNHFHFAVGDLAQDFRNDTPADDAFIVGVDVDYYVTEPDVLLEHMRPVVLHTFNPKKVSGFDADSPFTIKNNLVEYKVSGGAAWVHPVWDWCEAGEFIASRVRTSWKEWFLQLPLRMIGLEKVGYHKIHHCRPWTDCPDRALVYTIPQYVIWRFNWIDTELHVRKLKRIEYQDETKPGWNRLEYVTDKNELLVSIGREGEHAQITIEKEKLDMLSGLSATQSVNARLIGMGHKDPQYTSMIVQYYTGKKVVSPISPTVYKPTMPRVHWPVTSDADVPEVSARQYTLPIVSDCMMMPMIKRWETMSESIERRVTFVANDKKPSDRIAKIAETFVKLMNGPFKDLDPLSIEETIERLNKPSQQLQLRAVFEMIGVKPRQLIESFNKNEPGMKSSRIISGFPDILFILKVSRYTLAYSDIVLHAEHNEHWYYPGRNPTEIADGVCEFVSDCDAEVIETDFSNLDGRVSSWMQRNIAQKAMVQAFRPEYRDEIISFMDTIINCPAKAKRFGFRYEPGVGVKSGSPTTTPHNTQYNGCVEFTALTFEHPDAEPEDLFRLIGPKCGDDGLSRAIIQKSINRAAKCFGLELKVERYNPEIGLCFLSRVFVDPLATTTTIQDPLRTLRKLHLTTRDPTIPLADAACDRVEGYLCTDALTPLISDYCKMVLRLYGPTASTEQVRNQRRSRNKEKPYWLTCDGSWPQHPQDAHLMKQVLIKRTAIDEDQVDALIGRFAAMKDVWEKITHDSEESAAACTFDEDGVAPNSVDESLPMLNDAKQTRANPGTSRPHSNGGGSSHGNELPRRTEQRAQGPRQPARLPKQGKTNGKSDGNITAGETQRGGIPRGKGPRGGKTNTRRTPPKAGAQPQPSNNRK	binds
FHV protein A D692E, C-terminal alfa tag (natural protein, also called RNA polymerase null mutant D692E; not shown: ALFA tag, C-terminal, kept) MTLKVILGEHQITRTELLVGIATVSGCGAVVYCISKFWGYGAIAPYPQSGGNRVTRALQRAVIDKTKTPIETRFYPLDSLRTVTPKRVADNGHAVSGAVRDAARRLIDESITAVGGSKFEVNPNPNSSTGLRNHFHFAVGDLAQDFRNDTPADDAFIVGVDVDYYVTEPDVLLEHMRPVVLHTFNPKKVSGFDADSPFTIKNNLVEYKVSGGAAWVHPVWDWCEAGEFIASRVRTSWKEWFLQLPLRMIGLEKVGYHKIHHCRPWTDCPDRALVYTIPQYVIWRFNWIDTELHVRKLKRIEYQDETKPGWNRLEYVTDKNELLVSIGREGEHAQITIEKEKLDMLSGLSATQSVNARLIGMGHKDPQYTSMIVQYYTGKKVVSPISPTVYKPTMPRVHWPVTSDADVPEVSARQYTLPIVSDCMMMPMIKRWETMSESIERRVTFVANDKKPSDRIAKIAETFVKLMNGPFKDLDPLSIEETIERLNKPSQQLQLRAVFEMIGVKPRQLIESFNKNEPGMKSSRIISGFPDILFILKVSRYTLAYSDIVLHAEHNEHWYYPGRNPTEIADGVCEFVSDCDAEVIETDFSNLDGRVSSWMQRNIAQKAMVQAFRPEYRDEIISFMDTIINCPAKAKRFGFRYEPGVGVKSGSPTTTPHNTQYNGCVEFTALTFEHPDAEPEDLFRLIGPKCGEDGLSRAIIQKSINRAAKCFGLELKVERYNPEIGLCFLSRVFVDPLATTTTIQDPLRTLRKLHLTTRDPTIPLADAACDRVEGYLCTDALTPLISDYCKMVLRLYGPTASTEQVRNQRRSRNKEKPYWLTCDGSWPQHPQDAHLMKQVLIKRTAIDEDQVDALIGRFAAMKDVWEKITHDSEESAAACTFDEDGVAPNSVDESLPMLNDAKQTRANPGTSRPHSNGGGSSHGNELPRRTEQRAQGPRQPARLPKQGKTNGKSDGNITAGETQRGGIPRGKGPRGGKTNTRRTPPKAGAQPQPSNNRK	binds
